Data from the Human Domainome abundance scans (Beltran et al. 2025).
± gives the uncertainty stated by the source.

B1: Chromodomain-helicase-DNA-binding protein 5, residues 411 to 463; numbered along this chain, Q8TDI0 (parent)
chain: EEDDHMEFCRVCKDGGELLCCDACPSSYHLHCLNPPLPEIPNGEWLCPRCTCP

Variants of: B1
Assay: abundance fitness (aPCA) (normalised: wild type 0, dead -1); higher = more abundant; growth selection in yeast, the domain comes from the species named
Conditions: Homo sapiens

Point of comparison: S27R, abundance fitness -0.056 ± 0.041. Against it:
- P36E — within error, -0.194 ± 0.1
- P36N — lower, -0.591 ± 0.32
- P36K — within error, 0.088 ± 0.11
- P36F — within error, -0.091 ± 0.12
- P36A — higher, 0.099 ± 0.08
- P36V — within error, 0.066 ± 0.088
- P36G — lower, -0.169 ± 0.06
- D4W — within error, 0.005 ± 0.047
- D4V — lower, -0.14 ± 0.042
- D4G — lower, -0.425 ± 0.045
- D4R — higher, 0.048 ± 0.041
- D4N — higher, 0.288 ± 0.043
- D4T — higher, 0.216 ± 0.043
- D4P — within error, 0.024 ± 0.041
- D4S — within error, -0.081 ± 0.041
- D4E — within error, -0.131 ± 0.043
- T51N — within error, 0.018 ± 0.051
- T51S — within error, -0.089 ± 0.046
- T51Y — within error, -0.161 ± 0.097
- T51A — within error, -0.061 ± 0.046
- T51E — within error, -0.027 ± 0.063
- T51D — higher, 0.202 ± 0.099
- R10N — within error, 0.026 ± 0.11
- R10T — within error, 0.012 ± 0.086
- R10C — lower, -0.296 ± 0.087
- R10L — within error, -0.06 ± 0.056
- R10H — within error, -0.028 ± 0.12
- R10F — higher, 0.178 ± 0.12
- L37Q — within error, -0.028 ± 0.1
- L37N — within error, -0.229 ± 0.18
- L37C — lower, -0.299 ± 0.098
- L37S — within error, 0.023 ± 0.074
- L37P — within error, -0.113 ± 0.077
- L37I — within error, -0.023 ± 0.096
- L37T — within error, -0.005 ± 0.071
- L33V — within error, -0.04 ± 0.055
- L33K — lower, -0.699 ± 0.049
- L33F — lower, -0.209 ± 0.093
- L33W — lower, -0.594 ± 0.064
- L33A — lower, -0.171 ± 0.046
- L33D — lower, -0.344 ± 0.1
- N42M — within error, -0.137 ± 0.088
- N42R — within error, -0.052 ± 0.075
- N42E — within error, -0.022 ± 0.071
- N42D — within error, -0.028 ± 0.049
- N42T — within error, 0.014 ± 0.065
- P25E — within error, 0.054 ± 0.084
- P25S — within error, 0.022 ± 0.055
- P25C — higher, 0.087 ± 0.061
- P25A — higher, 0.094 ± 0.07
- P25L — within error, -0.157 ± 0.067
- P25R — higher, 0.087 ± 0.063
- L30N — within error, -0.04 ± 0.044
- L30R — within error, -0.018 ± 0.049
- L30I — within error, -0.002 ± 0.045
- L30G — within error, 0.002 ± 0.048
- L30D — within error, -0.013 ± 0.075
- L30K — within error, -0.043 ± 0.071
- G43Q — within error, 0.039 ± 0.12
- G43N — within error, 0.039 ± 0.07
- G43P — within error, -0.041 ± 0.047
- G43M — lower, -0.333 ± 0.2
- G43S — within error, -0.008 ± 0.065
- G43A — within error, 0.047 ± 0.076
- G43F — higher, 0.149 ± 0.13
- L18S — lower, -0.754 ± 0.13
- L18I — within error, 0.035 ± 0.14
- L18M — within error, -0.019 ± 0.1
- L18G — lower, -0.655 ± 0.13
- L18C — lower, -0.288 ± 0.14
- F8W — lower, -0.346 ± 0.083
- F8Y — within error, 0.033 ± 0.088
- F8S — within error, -0.099 ± 0.073
- F8H — within error, -0.163 ± 0.1
- F8L — within error, 0.015 ± 0.065
- F8D — within error, -0.138 ± 0.077
- F8Q — lower, -0.17 ± 0.051
- F8M — within error, -0.131 ± 0.075
- D14N — within error, -0.061 ± 0.048
- D14Y — lower, -0.452 ± 0.15
- D14C — lower, -0.291 ± 0.083
- D14W — lower, -0.232 ± 0.096
- D14M — within error, -0.051 ± 0.09
- D14P — lower, -0.984 ± 0.17
- D14Q — within error, -0.2 ± 0.18
- D14H — within error, -0.037 ± 0.11
- P41R — within error, -0.004 ± 0.045
- P41W — lower, -0.393 ± 0.11
- P41M — lower, -0.262 ± 0.091
- P41A — within error, -0.144 ± 0.087
- P41S — within error, 0.047 ± 0.078
- P41L — within error, -0.019 ± 0.059
- P41I — within error, -0.159 ± 0.14
- S27F — higher, 0.152 ± 0.092
- S27D — lower, -0.3 ± 0.073
- S27Q — within error, -0.064 ± 0.068
- S27G — lower, -0.168 ± 0.061
- S27N — within error, 0.02 ± 0.06
- L19I — higher, 0.26 ± 0.098
- L19V — within error, -0.031 ± 0.077
- L19G — lower, -0.571 ± 0.059
- L19C — lower, -0.317 ± 0.089
- L19P — lower, -1.22 ± 0.38
- C52E — higher, 0.126 ± 0.08
- C52Q — within error, -0.121 ± 0.11
- C52P — higher, 0.11 ± 0.053
- C52L — within error, 0.018 ± 0.049
- C52D — higher, 0.262 ± 0.085
- Y28T — lower, -0.542 ± 0.063
- Y28D — lower, -0.405 ± 0.076
- Y28P — lower, -0.565 ± 0.076
- Y28S — lower, -0.679 ± 0.058
- Y28F — within error, -0.007 ± 0.046
- Y28I — lower, -0.535 ± 0.11
- P35F — lower, -0.24 ± 0.049
- P35D — lower, -0.246 ± 0.079
- P35L — lower, -0.315 ± 0.071
- P35V — within error, -0.145 ± 0.07
- P35G — lower, -0.182 ± 0.046
- P35A — lower, -0.299 ± 0.057
- P35H — lower, -0.353 ± 0.1
- C20T — higher, 0.123 ± 0.073
- C20I — higher, 0.073 ± 0.06
- C20K — within error, 0.01 ± 0.083
- C20M — within error, -0.017 ± 0.081
- H29F — lower, -0.765 ± 0.27
- H29G — lower, -0.825 ± 0.063
- H29P — lower, -0.732 ± 0.15
- H29C — within error, -0.164 ± 0.082
- H29T — lower, -1.14 ± 0.41
- D3Q — higher, 0.105 ± 0.047
- D3E — higher, 0.136 ± 0.082
- D3H — within error, -0.015 ± 0.046
- D3C — lower, -0.763 ± 0.065
- D3V — higher, 0.114 ± 0.054
- H5W — lower, -0.214 ± 0.043
- H5E — lower, -0.476 ± 0.069
- H5F — higher, 0.067 ± 0.053
- H5N — higher, 0.117 ± 0.064
- H5C — lower, -0.319 ± 0.094
- H5D — lower, -0.177 ± 0.076
- C50D — lower, -0.4 ± 0.062
- C50Y — lower, -0.568 ± 0.11
- C50G — lower, -0.613 ± 0.05
- C50P — lower, -0.517 ± 0.052
- C50N — lower, -0.591 ± 0.11
- C50V — lower, -0.675 ± 0.057
- C50H — within error, 0.008 ± 0.058
- C50T — lower, -0.74 ± 0.064
- C50Q — lower, -0.619 ± 0.049
- C50M — lower, -0.77 ± 0.065
- C50K — lower, -0.598 ± 0.065
- P53G — within error, -0.097 ± 0.06
- P53R — lower, -0.669 ± 0.29
- P53A — within error, -0.091 ± 0.14
- E44L — lower, -0.186 ± 0.058
- E44G — within error, -0.027 ± 0.045
- E44V — within error, -0.105 ± 0.04
- E44P — within error, -0.071 ± 0.063
- E44N — within error, -0.083 ± 0.09
- E44M — lower, -0.312 ± 0.075
- E44A — within error, -0.095 ± 0.048
- E44I — within error, -0.156 ± 0.1
- N34D — lower, -0.27 ± 0.12
- N34M — lower, -0.221 ± 0.11
- N34R — within error, -0.039 ± 0.057
